Laboratory results reported in PMC8826744 (Microbiology Spectrum, 2022).

B1: farletuzumab-IgG1 (antibody, V domains shown)
VH: EVQLVESGGGVVQPGRSLRLSCSASGFTFSGYGLSWVRQAPGKGLEWVAMISSGGSYTYYADSVKGRFAISRDNAKNTLFLQMDSLRPEDTGVYFCARHGDDPAWFAYWGQGTPVTVSS
VL: DIQLTQSPSSLSASVGDRVTITCSVSSSISSNNLHWYQQKPGKAPKPWIYGTSNLASGVPSRFSGSGSGTDYTFTISSLQPEDIATYYCQQWSSYPYMYTFGQGTKVEIK
notes: IgG1; source: CHO-S, transfected, purified (protein A)
B2: farletuzumab-FuG1 (antibody, V domains shown)
VH: B1 VH
VL: B1 VL
notes: also called farletuzumab-FuGi

Target: T1, IgG4-Fc tagged rFOLR1 (Homo sapiens (assumed), UniProt P15328)
T1 construct: also called recombinant IgG4-Fc FOLR1; folate receptor alpha-1; source: CHO-S, transfected, purified (protein A)
Assay: ELISA; IgG4-Fc tagged rFOLR1 (2 ug/mL) coated on 96-well plates overnight; antibodies 50 nM to 0.048 nM, 1 h at 37 C; detected with HRP anti-human IgG1
Settings: both partners purified

Binder | binding result
B1 | binds
B2 | binds
